In patent US20080044424:

Target: T1, human PAR1 (AA #27-102)/thioredoxin fusion protein (UniProt P25116)
T1 sequence: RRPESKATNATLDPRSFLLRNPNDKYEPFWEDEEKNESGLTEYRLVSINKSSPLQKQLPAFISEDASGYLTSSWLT

## thrombin
  proteolytic cleavage: The PAR1/thioredoxin was cleaved to completion with thrombin
